Test results: article PMC10703199

Columns and labels:
[1] = target: sperm immobilization factor (SIF) from Staphylococcus aureus (Staphylococcus aureus)
[2] = target: SIF-binding receptor from Proteus mirabilis (PM-SBR) (Proteus mirabilis); assay: ITC; SIF (500 μg/ml) in the syringe, 10 μl injections into PM-SBR (200 μg/ml) in the vial, PBS as reference, 37°C, stirring 200 rpm, 800 s between injections; micro reaction calorimeter

Substance | motility of mouse spermatozoa exposed for 20 seconds to SIF (70 μg) pre-incubated with PM-SBR (10-200 μg): amount of PM-SBR that alleviated the immobilization [1] [µg] | viability of mouse spermatozoa (eosin staining) with SIF (150 μg) pre-incubated with PM-SBR (50-300 μg): minimum effective concentration (MEC) of PM-SBR reducing sperm mortality caused by SIF [1] [µg] | Ka [2] [M⁻¹] | dH [2] [kcal/mol]
SIF-binding receptor from Proteus mirabilis (PM-SBR) (natural protein) | 130 | 270 |  | 
sperm immobilization factor (SIF) from Staphylococcus aureus (natural protein) |  |  | 1220 | 2.29
